In paper PMC8548084, “The role of DDK and Treslin–MTBP in coordinating replication licensing and pre-initiation complex formation” (Open Biology, 2021):

Target: T1, MTBP (Mdm2 Binding Protein), Xenopus (Xenopus laevis (endogenous in egg …, UniProt Q6NRW0 1-860))
T1 construct: MTBP of Xenopus laevis, endogenous in egg extract; 96 kDa as printed; Printed N-terminal 125 residues (antigen MTBP-2): [residues removed]
T1 sequence (looked up): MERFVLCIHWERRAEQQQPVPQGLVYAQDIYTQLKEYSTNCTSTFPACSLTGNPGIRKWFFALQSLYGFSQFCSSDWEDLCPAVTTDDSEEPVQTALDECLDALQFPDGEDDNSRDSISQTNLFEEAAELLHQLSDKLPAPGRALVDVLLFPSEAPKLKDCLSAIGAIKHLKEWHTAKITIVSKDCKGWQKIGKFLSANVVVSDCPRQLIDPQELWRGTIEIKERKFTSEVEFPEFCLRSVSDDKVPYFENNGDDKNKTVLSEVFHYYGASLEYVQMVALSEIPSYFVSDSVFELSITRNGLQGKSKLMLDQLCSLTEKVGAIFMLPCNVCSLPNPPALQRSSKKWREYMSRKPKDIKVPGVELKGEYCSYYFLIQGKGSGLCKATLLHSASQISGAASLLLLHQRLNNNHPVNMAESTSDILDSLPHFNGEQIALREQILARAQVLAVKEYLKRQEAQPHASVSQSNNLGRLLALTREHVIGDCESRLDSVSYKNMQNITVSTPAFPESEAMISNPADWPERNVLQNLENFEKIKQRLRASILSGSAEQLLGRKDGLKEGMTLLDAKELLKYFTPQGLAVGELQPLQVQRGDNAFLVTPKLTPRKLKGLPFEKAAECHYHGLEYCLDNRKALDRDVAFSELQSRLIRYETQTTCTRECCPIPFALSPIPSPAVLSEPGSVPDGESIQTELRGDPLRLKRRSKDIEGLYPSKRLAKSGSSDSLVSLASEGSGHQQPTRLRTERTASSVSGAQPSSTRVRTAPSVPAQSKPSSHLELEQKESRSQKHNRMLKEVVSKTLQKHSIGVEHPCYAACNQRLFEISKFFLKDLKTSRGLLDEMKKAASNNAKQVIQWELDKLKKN
Experiment: SEC + other: sucrose gradient centrifugation; 3% PEG-precipitated proteins of Xenopus egg extract in LFB1/50; Agilent BIO SEC-5 column at 4°C and 5-40% sucrose gradient; fractions immunoblotted for MTBP and Treslin; native mass by the Siegel and Monty equation
Details: partners not purified

B1: Treslin/Ticrr, Xenopus (natural protein, UniProt D3IUT5 1-1985, looked up)
chain: MAPSHNVVLLVDTAESSDKSRLRRVSLRLLNFLACRAGLGQVRWSYRFLNSSGGRCRPPRRSDLRELGPRGWEEFEDELEACWERARNCRPSSTQSSRAQLLQTALMETLADFQWDRPDITSPTKPTLLRSRRGRIVAADEPLKDDSPDNFINPHSRNSIFLLSSCPHSGTELGQFAATSGDFSTQKVMDKLLPKSLQKIVSSKRVRVYWLDTSDWTQFGSSSDHSGYWTMVELMHQVEGRILPSESILGSSCQKAKTLPSFSVPPINIPFESVLNYLIFSEPDYQLWFPRRDGILFLTGKDGTKQLDCAVSLEPVSMIQKLSTSLMTIELKGTMQNCNLPLAGLRVETWLLHNSDCVQLQKLTKELMLKELHMIATVTLEDDVLPRTGILSPLSETAAVLNVICSERTLGLDNLHVQGSVHETDKETFSDLPDIVMSVLNHVYSSEDNTLAPDFPVPEWIKQELSQSSRWTSSVTARWYPLSGVSGASCNLMESFRLINAASSNCDEHLKFDQELTNYLSEFYQKKSVDDAGLGVHRENQKKSGLPRTPVRQKMKTLPRALQMLNAARLNVKAQKADSTLPVPNEKNSQMKRRSSGKQDNKPKQLKPTEFQSEDGLISYIKENYEEAVSLVDHSTMTWARDTLTTIKSYLKSIGSEQIETEAIDKVKLLFKTSKVIRQNYRNNQDKEVKLKECQLQVFLRLEMFVQCPVIQMDSDELELIIEEITDILRIVSLTEDPLFLTKFLEVDVLTQYIASVPKILADIYFSLGTQIPEVLVLVLPSDGDDSIMHEEKSVKSQPSTSRVPSVAPIGAETDQLEDLRTRSAKKRRSTALARHRSVAESSQSFRQIEVPKRQPNKENVQSNAVVVLEKLKLPLPAQPQKDAEAKVRRNLFIQETRSPSKRCSKMPRSQSVSAVESLKRKRSKSHDGSKDHHKLLTKKVSETPVHKQTANRLLLRQIKGRPSESNSNISIVEESPEKEIRDIDLRRSPRIKQLSLTRRNSSSFYASQPKSRNLERVNSATQLQQSRERPGSCLISEVKTPKRLLFGEVLGMISPPTTKRSRRILDMVNPVYKTPGKTPRKTPSKNIPNFEDQSGNMLVKSPCTPYTPRTPSRTPKRLKTPSKGSTERKKAAKNLGKLFSPSKPEEKSPLKLWGRRSERLAQMTPGKDGSPYKQSVCQTLMEVKTPQKLQRLESKDFRTPSRTPTRSNNTTPAKQSMQISNTPRKSDLKHPQEHESRGPSGYILWTPQKRILASVPHTPILQTPQKPISASVPRTPVCRTPQKAILSSVPSTPVCQTPNKAILTSVSRTPVYQTPQKAILASVMSTPVYQTPQKPVLASVPTTPILKTPQRSALASVSHTPSPKKYIMKELTVAITRMRECTPEKVLGSNLSSSATPSSALKSFCSEKTTSVCQTPKKSSIALLKPCDSLEFSGAPERLMDSLCSNKDSTKAETACTVPSQISTQMQNVINAGECTDSLSQTSVSSPSIPFTDKSLSPDLKDALSDVTSSKAEGVTIVSEKLDSSSMDSQEATDSFINSSQTEESIDISEARVVSTEASELKMKVLITRKPSGSGVSYLPTTPKCLGNVCSTSTYGLRCTPDRRQREAAARLGTPEIPAKFSTPKSHCKMIPQSIYEVELEMQESGLPKLRFKRTDSNSTIDMDVNKTPKISRKRKGDESPFNEKWCSKHAVRTEPACVSPSCVRTSHYTPGKSGIQTFICQSYTPNRCLSAAASPSQSDAGVPWTPSPKEKLSTDVINSWPRKKKASALCTNLLKCDKIPEYAEEDGGDFELEGVSKLLEKSPVIEQQSKVDGGTFGLRSRKRVFSLVSPTKETENPVKRVCTFNRHEDSSTATHRHQTKEEMEIFSSDQSRSSYLSSSQQSICDDVFNMSDFTPPSKVPKNPLSACGLLTLTQSPLLYKGKTPSSKRKEKIQDVFSDGDSDHGTPTLKRPTNPAAVSDDSPFRKVNPLRSISKTYSRKKLIT
notes: Treslin (Ticrr) of Xenopus laevis, endogenous in egg extract; 220 kDa as printed; no sites are mapped
Q: With B1 as the binder, how does the “stoichiometry N” value read?
A: 2 molecules of Treslin with 2 molecules of MTBP
